Blank lines part the entries; values can stand above or below the binder they belong to.
How the values were obtained:
Test in all cases: two-hybrid library CCmax;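 also: natural log of median RNA to DNA barcode read ratio; higher means stronger binding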
[1] = biological target: T1, Core_IINN-es_KKKE; conditions: mean of both orientations
T1 chain: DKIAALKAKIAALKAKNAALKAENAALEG

[2] = biological target: T2, 4H2283-AA; conditions: mean of both orientations
T2 chain: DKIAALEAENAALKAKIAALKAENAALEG

[3] = biological target: T3, 4H1854-AA; conditions: mean of both orientations
T3 chain: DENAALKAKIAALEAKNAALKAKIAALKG

[4] = biological target: T4, 4H1109-AA; conditions: mean of both orientations
T4 chain: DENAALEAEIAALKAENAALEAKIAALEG

[5] = biological target: T5, 4H1146-AA; conditions: mean of both orientations
T5 chain: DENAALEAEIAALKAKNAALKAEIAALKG

[6] = biological target: T6, 4H1809-AA; conditions: mean of both orientations
T6 chain: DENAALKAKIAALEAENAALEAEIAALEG

[7] = biological target: T7, 4H3029-AA; conditions: mean of both orientations
T7 chain: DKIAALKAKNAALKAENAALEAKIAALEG

[8] = biological target: T8, 4H971-AA; conditions: mean of both orientations
T8 chain: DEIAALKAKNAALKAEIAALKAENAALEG

[9] = biological target: T9, 4H497-AA; conditions: mean of both orientations
T9 chain: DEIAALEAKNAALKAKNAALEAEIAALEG

[10] = biological target: T10, 4H3939-AA; conditions: mean of both orientations
T10 chain: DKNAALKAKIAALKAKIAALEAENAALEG

[11] = biological target: T11, 4H3417-AA; conditions: mean of both orientations
T11 chain: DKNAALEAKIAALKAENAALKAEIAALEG

[12] = biological target: T12, 4H1391-AA; conditions: mean of both orientations
T12 chain: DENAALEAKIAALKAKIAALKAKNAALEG

[13] = biological target: T13, 4H3102-AA; conditions: mean of both orientations
T13 chain: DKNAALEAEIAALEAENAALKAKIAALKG

[14] = biological target: T14, 4H2948-AA; conditions: mean of both orientations
T14 chain: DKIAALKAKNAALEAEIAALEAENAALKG

[15] = biological target: T15, 4H2991-AA; conditions: mean of both orientations
T15 chain: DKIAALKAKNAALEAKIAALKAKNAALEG

[16] = biological target: T16, 4H675-AA; conditions: mean of both orientations
T16 chain: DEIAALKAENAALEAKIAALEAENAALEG

[17] = biological target: T17, 4H3709-AA; conditions: mean of both orientations
T17 chain: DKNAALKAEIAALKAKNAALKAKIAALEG

[18] = biological target: T18, 4H3666-AA; conditions: mean of both orientations
T18 chain: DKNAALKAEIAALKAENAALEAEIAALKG

[19] = biological target: T19, 4H3920-AA; conditions: mean of both orientations
T19 chain: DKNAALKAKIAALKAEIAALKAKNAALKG

[20] = biological target: T20, 4H2580-AA
T20 chain: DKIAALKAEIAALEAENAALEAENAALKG

[21] = biological target: T21, 4H3591-AA; conditions: mean of both orientations
T21 chain: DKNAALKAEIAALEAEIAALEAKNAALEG

[22] = biological target: T22, 4H3066-AA; conditions: mean of both orientations
T22 chain: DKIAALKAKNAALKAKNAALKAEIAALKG

[23] = biological target: T23, 4H1064-AA; conditions: mean of both orientations
T23 chain: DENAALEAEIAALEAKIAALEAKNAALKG

[24] = biological target: T24, 4H1348-AA; conditions: mean of both orientations
T24 chain: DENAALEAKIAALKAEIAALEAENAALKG

[25] = biological target: T25, 4H1035-AA; conditions: mean of both orientations
T25 chain: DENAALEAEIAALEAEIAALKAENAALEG

[26] = biological target: T26, 4H478-AA; conditions: mean of both orientations
T26 chain: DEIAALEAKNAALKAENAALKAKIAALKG

[27] = biological target: T27, 4H189-AA; conditions: mean of both orientations
T27 chain: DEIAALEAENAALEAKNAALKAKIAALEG

[28] = biological target: T28, 4H3121-AA; conditions: mean of both orientations
T28 chain: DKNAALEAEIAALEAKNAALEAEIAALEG

[29] = biological target: T29, 4H2742-AA; conditions: mean of both orientations
T29 chain: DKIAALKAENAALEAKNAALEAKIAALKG

[30] = biological target: T30, 4H3446-AA; conditions: mean of both orientations
T30 chain: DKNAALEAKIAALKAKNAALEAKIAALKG

[31] = biological target: T31, 4H656-AA
T31 chain: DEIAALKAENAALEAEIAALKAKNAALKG

[32] = biological target: T32, 4H146-AA; conditions: mean of both orientations
T32 chain: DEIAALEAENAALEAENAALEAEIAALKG

[33] = biological target: T33, 4H3628-AA; conditions: mean of both orientations
T33 chain: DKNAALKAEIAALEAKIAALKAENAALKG

[34] = biological target: T34, 4H1000-AA
T34 chain: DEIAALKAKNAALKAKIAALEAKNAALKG

[35] = biological target: T35, 4H2713-AA; conditions: mean of both orientations
T35 chain: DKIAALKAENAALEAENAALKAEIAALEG

[36] = biological target: T36, 4H428-AA; conditions: mean of both orientations
T36 chain: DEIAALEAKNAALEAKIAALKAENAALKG

[37] = biological target: T37, 4H391-AA; conditions: mean of both orientations
T37 chain: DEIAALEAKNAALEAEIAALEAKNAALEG

[38] = biological target: T38, 4H2248-AA
T38 chain: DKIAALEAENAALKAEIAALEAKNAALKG

[39] = biological target: T39, 4H2750-AA; conditions: mean of both orientations
T39 chain: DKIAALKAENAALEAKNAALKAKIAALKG

[40] = biological target: T40, 4H535-AA; conditions: mean of both orientations
T40 chain: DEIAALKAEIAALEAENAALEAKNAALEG

[41] = biological target: T41, 4H3705-AA; conditions: mean of both orientations
T41 chain: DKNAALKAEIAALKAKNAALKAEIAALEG

[42] = biological target: T42, 4H140-AA; conditions: mean of both orientations
T42 chain: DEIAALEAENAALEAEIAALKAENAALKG

[43] = biological target: T43, 4H1257-AA; conditions: mean of both orientations
T43 chain: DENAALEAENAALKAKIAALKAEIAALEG

[44] = biological target: GCN2_T
[45] = biological target: T44, 4H3365-AA; conditions: mean of both orientations
T44 chain: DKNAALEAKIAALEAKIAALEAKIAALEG

[46] = biological target: T45, 4H2898-AA; conditions: mean of both orientations
T45 chain: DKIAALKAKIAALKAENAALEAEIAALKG

[47] = biological target: T46, 4H465-AA; conditions: mean of both orientations
T46 chain: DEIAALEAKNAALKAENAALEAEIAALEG

[48] = biological target: T47, 4H486-AA; conditions: mean of both orientations
T47 chain: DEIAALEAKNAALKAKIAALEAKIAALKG

[49] = biological target: T48, 4H_BCR; conditions: mean of both orientations
T48 chain: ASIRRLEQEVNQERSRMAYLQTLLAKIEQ

[50] = biological target: T49, 4H3782-AA; conditions: mean of both orientations
T49 chain: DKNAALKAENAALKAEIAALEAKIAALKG

[51] = biological target: T50, 4H3020-AA; conditions: mean of both orientations
T50 chain: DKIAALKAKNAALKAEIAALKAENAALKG

[52] = biological target: T51, 4H2600-AA; conditions: mean of both orientations
T51 chain: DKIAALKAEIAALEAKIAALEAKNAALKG

[53] = biological target: T52, 4H1110-AA
T52 chain: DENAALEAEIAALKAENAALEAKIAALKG

[54] = biological target: T53, 4H3651-AA; conditions: mean of both orientations
T53 chain: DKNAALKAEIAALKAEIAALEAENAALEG

[55] = biological target: T54, 4H895-AA; conditions: mean of both orientations
T54 chain: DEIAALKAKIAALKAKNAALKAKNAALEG

[56] = biological target: T55, 4H58-AA; conditions: mean of both orientations
T55 chain: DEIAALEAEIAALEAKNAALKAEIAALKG

[57] = biological target: T56, 4H355-AA; conditions: mean of both orientations
T56 chain: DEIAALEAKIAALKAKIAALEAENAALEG

[58] = biological target: 4H_GCN4
Sequence of 4H_GCN4 (chain, as listed by the source): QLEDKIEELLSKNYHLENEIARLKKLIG

[59] = biological target: T57, 4H1802-AA; conditions: mean of both orientations
T57 chain: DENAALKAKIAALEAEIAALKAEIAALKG

[60] = biological target: T58, 4H1136-AA; conditions: mean of both orientations
T58 chain: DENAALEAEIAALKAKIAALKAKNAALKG

[61] = biological target: T59, 4H2721-AA; conditions: mean of both orientations
T59 chain: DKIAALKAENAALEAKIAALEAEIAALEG

[62] = biological target: T60, 4H_APH; conditions: mean of both orientations
T60 chain: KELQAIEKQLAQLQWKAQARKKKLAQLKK

[63] = biological target: T61, Core_NNIN-es_KKEE; conditions: mean of both orientations
T61 chain: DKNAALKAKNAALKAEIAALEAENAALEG

interaction score [1]: 2.03
B1: Core_IINN-es_EEEK (peptide)
chain: DEIAALEAEIAALEAENAALEAKNAALKG

interaction score [2]: 0.468
interaction score [3]: -1.79
interaction score [4]: 1.3
interaction score [5]: -1.52
interaction score [6]: 0.471
interaction score [7]: -0.99
interaction score [8]: -0.95
interaction score [9]: -1.74
interaction score [10]: -1.65
interaction score [11]: -0.644
interaction score [12]: -1.56
interaction score [13]: -0.226
interaction score [14]: 0.224
interaction score [15]: -1.19
interaction score [16]: 2.34
interaction score [17]: -1.07
interaction score [18]: 0.777
interaction score [19]: -1.89
interaction score [20]: -1.04
interaction score [21]: -0.703
interaction score [22]: -1.96
interaction score [23]: -0.567
interaction score [24]: -1.24
interaction score [25]: -1.26
interaction score [26]: -2.48
interaction score [27]: -0.933
interaction score [28]: -0.524
interaction score [29]: -1.09
interaction score [30]: -1.24
interaction score [31]: 0.604
interaction score [32]: -0.33
interaction score [33]: -1.21
interaction score [34]: -0.42
interaction score [35]: -1.49
interaction score [36]: -0.137
interaction score [37]: 0.223
interaction score [38]: -1.32
B2: 4H1000-AA (peptide)
chain: DEIAALKAKNAALKAKIAALEAKNAALKG

interaction score [39]: -0.176
interaction score [40]: -1.39
interaction score [41]: 2.63
interaction score [42]: -1.14
interaction score [43]: -0.798
interaction score [44]: -0.988
interaction score [45]: -1.2
interaction score [46]: 1.96
interaction score [47]: -1.11
interaction score [48]: 1.93
interaction score [49]: 0.0686
interaction score [50]: -0.707
interaction score [51]: 1.51
interaction score [52]: -1.01
interaction score [53]: 0.405
interaction score [54]: -1.2
interaction score [55]: 0.133
interaction score [56]: 1.28
interaction score [57]: -0.0666
interaction score [58]: -0.932
interaction score [59]: -1.32
interaction score [60]: -1.36
interaction score [61]: -0.718
interaction score [62]: -1.53
B3: 4H1110-AA (peptide)
chain: DENAALEAEIAALKAENAALEAKIAALKG

interaction score [63]: 1.83
B4: Core_NNIN-es_EEKK (peptide)
chain: DENAALEAENAALEAKIAALKAKNAALKG

— publication PMC10397247
